According to article PMC8344021, “Discovery of Small Molecule Bak Activator for Lung Cancer Therapy” (Theranostics, 2021):
Where “and” joins values, the source holds several entries; their conditions need not be identical. Identical values can stand only once.

Biological target: T1, Bak (endogenous, mitochondria of A549 cells) (human (endogenous in A549)), Q16611
T1 chain: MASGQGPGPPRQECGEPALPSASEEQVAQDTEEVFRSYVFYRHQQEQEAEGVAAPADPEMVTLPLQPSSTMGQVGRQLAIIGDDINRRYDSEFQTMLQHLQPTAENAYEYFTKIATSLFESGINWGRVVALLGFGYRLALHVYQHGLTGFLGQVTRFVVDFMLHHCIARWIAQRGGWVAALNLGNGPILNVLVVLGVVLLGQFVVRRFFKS
Experiment: cross-linking; A549 cells treated with BKA-073 (1 uM) for 24 h; mitochondrial fraction; 10 mM BMH in PBS pH 7.2 with 5 mM EDTA, 1 h at room temperature, quenched with DTT; SDS-PAGE and Western blot with a Bak antibody
Settings: remark: other sources report otherwise

B1: Bak (endogenous, mitochondria of A549 cells), Q16611 1-211 (natural protein)
chain: MASGQGPGPPRQECGEPALPSASEEQVAQDTEEVFRSYVFYRHQQEQEAEGVAAPADPEMVTLPLQPSSTMGQVGRQLAIIGDDINRRYDSEFQTMLQHLQPTAENAYEYFTKIATSLFESGINWGRVVALLGFGYRLALHVYQHGLTGFLGQVTRFVVDFMLHHCIARWIAQRGGWVAALNLGNGPILNVLVVLGVVLLGQFVVRRFFKS
With B1 the stoichiometry N was 2 and 3.
